Laboratory results taken from US20140274782A1 (Stanford University, published 2014).

Columns and labels:
[1] = target: MGC4473, G9a-methylated (human); test: ProtoArray methylated with G9a SET domain
[2] = target: LOC400500, G9a-methylated (human); test: ProtoArray methylated with G9a SET domain
[3] = target: LOC145788, G9a-methylated (human); test: ProtoArray methylated with G9a SET domain
[4] = target: cDNA clone IMAGE:4623222 product, G9a-methylated (human); test: ProtoArray methylated with G9a SET domain
[5] = target: T1, GHRL-ghrelin/obestatin preprohormone (GHRL) (human, UniProt Q9UBU3 1-117, limits assumed); test: ProtoArray, GST-treated control array
T1 sequence (looked up): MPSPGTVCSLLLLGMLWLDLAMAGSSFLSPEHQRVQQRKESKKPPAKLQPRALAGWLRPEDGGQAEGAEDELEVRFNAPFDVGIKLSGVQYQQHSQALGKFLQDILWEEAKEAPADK

[6] = target: T2, GAL-galanin prepropeptide (GAL) (human, UniProt P22466 1-123, limits assumed); test: ProtoArray, GST-treated control array
T2 sequence (looked up): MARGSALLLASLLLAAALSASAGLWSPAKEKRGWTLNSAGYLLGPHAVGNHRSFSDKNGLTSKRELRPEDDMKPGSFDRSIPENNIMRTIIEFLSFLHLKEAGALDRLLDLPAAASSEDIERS

[7] = target: T3, SCGB1A1-secretoglobin, family 1A, member 1 (uteroglobin) (SCGB1A1) (human, UniProt P11684 22-91, limits assumed); test: ProtoArray, GST-treated control array;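 also: human protein microarray (about 9500 recombinant proteins) incubated overnight with GST alone plus SAM cofactor as the negative control for G9a SET domain methylation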
T3 sequence (looked up): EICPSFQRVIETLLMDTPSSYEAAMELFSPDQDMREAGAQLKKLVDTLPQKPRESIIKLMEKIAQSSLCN

[8] = target: T4, ZRANB1-zinc finger, RAN-binding domain containing 1 (ZRANB1) (human, UniProt Q9UGI0 1-708); test: ProtoArray, GST-treated control array;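 also: human protein microarray (about 9500 recombinant proteins) incubated overnight with GST alone plus SAM cofactor as the negative control for G9a SET domain methylation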
T4 sequence (looked up): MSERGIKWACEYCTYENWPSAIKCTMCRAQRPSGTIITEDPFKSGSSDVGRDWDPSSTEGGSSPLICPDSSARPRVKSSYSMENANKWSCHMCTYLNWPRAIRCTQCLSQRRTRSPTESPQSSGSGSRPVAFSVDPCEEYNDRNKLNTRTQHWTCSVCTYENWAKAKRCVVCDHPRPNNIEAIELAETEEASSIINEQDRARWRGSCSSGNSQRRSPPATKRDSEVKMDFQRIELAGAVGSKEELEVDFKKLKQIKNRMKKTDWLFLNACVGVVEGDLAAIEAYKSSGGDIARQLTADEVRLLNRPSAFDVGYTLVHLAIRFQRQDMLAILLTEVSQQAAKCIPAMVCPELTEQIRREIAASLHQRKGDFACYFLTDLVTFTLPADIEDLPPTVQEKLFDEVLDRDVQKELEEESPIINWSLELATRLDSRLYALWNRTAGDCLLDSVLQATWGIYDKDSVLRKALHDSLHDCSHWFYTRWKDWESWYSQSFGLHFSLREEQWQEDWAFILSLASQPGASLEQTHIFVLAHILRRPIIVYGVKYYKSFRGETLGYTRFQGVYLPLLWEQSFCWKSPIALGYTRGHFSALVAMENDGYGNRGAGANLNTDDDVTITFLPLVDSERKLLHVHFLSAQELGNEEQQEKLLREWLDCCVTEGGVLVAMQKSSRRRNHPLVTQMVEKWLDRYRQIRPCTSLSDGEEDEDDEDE

[9] = target: T5, Magmas-mitochondria-associated protein involved in granulocyte-macrophage colony-stimulating factor signal … (human, UniProt Q9Y3D7 1-125); test: ProtoArray, GST-treated control array;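 as to GST Average SNR: human protein microarray (about 9500 recombinant proteins) incubated overnight with GST alone plus SAM cofactor as the negative control for G9a SET domain methylation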
T5 sequence (looked up): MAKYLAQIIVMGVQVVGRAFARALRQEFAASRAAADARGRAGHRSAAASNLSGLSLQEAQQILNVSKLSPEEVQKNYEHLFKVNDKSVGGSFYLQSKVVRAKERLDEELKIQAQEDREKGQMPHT

[10] = target: T6, CTXN1-cortexin 1 (CTXN1) (human, UniProt P60606 1-82); test: ProtoArray, GST-treated control array;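 also: human protein microarray (about 9500 recombinant proteins) incubated overnight with GST alone plus SAM cofactor as the negative control for G9a SET domain methylation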
T6 sequence (looked up): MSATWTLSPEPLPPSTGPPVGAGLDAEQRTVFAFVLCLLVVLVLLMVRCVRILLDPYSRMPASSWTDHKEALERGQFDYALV

[11] = target: T7, CLDN15-claudin 15 (CLDN15) (human, UniProt P56746 1-228); test: ProtoArray, GST-treated control array
T7 sequence (looked up): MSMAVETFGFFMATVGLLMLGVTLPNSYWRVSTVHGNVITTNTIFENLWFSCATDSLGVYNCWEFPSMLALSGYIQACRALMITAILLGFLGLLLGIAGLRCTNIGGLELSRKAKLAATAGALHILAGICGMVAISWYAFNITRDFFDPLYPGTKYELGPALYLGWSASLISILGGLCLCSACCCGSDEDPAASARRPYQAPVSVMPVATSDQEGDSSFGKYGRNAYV

[12] = target: T8, STK17B-Serine/threonine-protein kinase 17B (human, UniProt O94768 1-372); test: ProtoArray, GST-treated control array
T8 sequence (looked up): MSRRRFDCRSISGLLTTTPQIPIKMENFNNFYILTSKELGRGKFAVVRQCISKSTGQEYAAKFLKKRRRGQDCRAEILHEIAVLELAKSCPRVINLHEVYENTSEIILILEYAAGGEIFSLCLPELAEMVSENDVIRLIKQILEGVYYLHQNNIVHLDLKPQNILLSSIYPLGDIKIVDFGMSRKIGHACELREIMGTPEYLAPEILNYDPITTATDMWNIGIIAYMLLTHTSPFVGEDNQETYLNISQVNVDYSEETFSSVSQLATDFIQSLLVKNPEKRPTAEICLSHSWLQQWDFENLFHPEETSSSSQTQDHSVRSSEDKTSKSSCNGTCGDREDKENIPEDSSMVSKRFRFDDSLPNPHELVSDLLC

G9a Average SNR [1]: 21.7
G9a Average SNR [2]: 29
G9a Average SNR [3]: 14.1
G9a Average SNR [4]: 18.8
GST Average SNR [7]: 1.16
GST Average SNR [8]: -0.43
GST Average SNR [9]: -1.16
GST Average SNR [10]: 1
GST Average SNR [11]: -0.296
GST Average SNR [12]: 0.575
B1: 3× Flag-3×MBT (designed binder)
chain: EEWSSSQPATGEKKECWSWESYLEEQKAITAPVSLFQDSQAVTHNKNGFKLGMKLEGIDPQHPSMYFILTVAEVCGYRLRLHFDGYSECHDFWVNANSPDIHPAGWFEKTGHKLQPPKGYKEEEFSWSQYLRSTRAQAAPKHLFVSQSHSPPPLGFQVGMKLEAVDRMNPSLVCVASVTDVVDSRFLVHFDNWDDTYDYWCDPSSPYIHPVGWCQKQGKPLTPPQDYPDPDNFCWEKYLEETGASAVPTWAFKVRPPHSFLVNMKLEAVDRRNPALIRVASVEDVEDHRIKIHFDGWSHGYDFWIDADHPDIHPAGWCSKTGHPLQPPLGPREPSSASPGG
notes: also called Flag-tagged 3×MBT; 3xFlag-3xMBT; not shown: made by PreScission cleavage of GST-3× Flag-3×MBT
binding result [5]: no binding (tested: GST array SNR <= 1.5)
binding result [6]: no binding (tested: GST array SNR <= 1.5)
